Data taken from patent US10336829B2, “Intracellular delivery compounds” (Sorrento Therapeutics, Inc., priority 2015, dated 2019).

Tests used:
MCF-10A cells = test: Caveolin and clathrin-dependent compound 901a uptake in MCF-10A cells; format: cell-based, human; conditions: 30 min pretreatment
Description: Clathrin-mediated endocytosis is mediated by small vesicles that have a morphologically characteristic coat made up of a complex of proteins that are mainly associated with the cytosolic protein clathrin. Caveolae are the most common reported non-clathrin-coated plasma membrane buds, which exist on the surface of many, but not all cell types. They consist of the cholesterol-binding protein caveolin (Vip21) with a bilayer enriched in cholesterol and glycolipids. Both clathrin mediated endocytosis and caveolae transport extracellular molecules into the cell. 5,000 cells were seeded per well in a 96 well plate, overnight. Cells were pretreated with the clathrin inhibitor Pitstop2 (30 uM or 60 uM) or the caveolin inhibitor filipin (0.5 ug/ml or 1.0 ug/ml) for 30 minutes. […] Cells were fixed and imaged with IncuCyte. DMSO and antibody only were used as controls.

STAT3 [1] = target: T1, STAT3 (Homo sapiens, UniProt P40763); test: IL-6-stimulated STAT3 phosphorylation ELISA in MCF-10A and MCF-7 cells; format: cell-based; parameters: endogenous in cells; conditions: overnight pre-treatment, IL-6 10 or 40 ng/ml 20 min
T1 sequence (P40763 whole entry): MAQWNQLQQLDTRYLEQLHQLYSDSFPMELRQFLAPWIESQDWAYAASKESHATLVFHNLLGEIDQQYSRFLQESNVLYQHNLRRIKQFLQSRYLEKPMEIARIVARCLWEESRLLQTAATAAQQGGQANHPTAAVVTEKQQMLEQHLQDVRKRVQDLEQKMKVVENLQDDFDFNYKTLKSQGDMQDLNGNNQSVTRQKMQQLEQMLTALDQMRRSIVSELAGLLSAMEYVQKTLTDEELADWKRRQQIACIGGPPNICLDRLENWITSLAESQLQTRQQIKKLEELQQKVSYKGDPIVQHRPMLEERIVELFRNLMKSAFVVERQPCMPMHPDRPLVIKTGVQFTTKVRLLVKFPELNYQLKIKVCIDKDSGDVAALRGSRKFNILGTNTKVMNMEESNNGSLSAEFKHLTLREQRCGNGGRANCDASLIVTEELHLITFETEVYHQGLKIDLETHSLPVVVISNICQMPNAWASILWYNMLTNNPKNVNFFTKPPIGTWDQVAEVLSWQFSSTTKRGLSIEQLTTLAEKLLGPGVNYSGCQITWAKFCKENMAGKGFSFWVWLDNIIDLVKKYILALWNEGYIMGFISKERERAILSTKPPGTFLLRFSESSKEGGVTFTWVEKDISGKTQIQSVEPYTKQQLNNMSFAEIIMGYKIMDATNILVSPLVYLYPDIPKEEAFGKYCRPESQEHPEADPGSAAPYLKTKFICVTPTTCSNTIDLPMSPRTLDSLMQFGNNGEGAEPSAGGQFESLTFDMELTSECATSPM
Procedure: Cells were pre-treated overnight with antibody, and then stimulated with various concentrations of IL-6 for 20 minutes (10 ng/ml or 40 ng/ml). IL-6 is a STAT3 activator. Cells were then lysed and the protein lysates were subjected to ELISA to determine the phosphorylation status. […] “OS-AIP” refers to an oligosaccharide conjugated bacterial AIP protein, used as a control.

[2] = tested on: cellular antigens in U251 cells; test: Cell binding of naked ST3G12 versus compound 901a in permeabilized U251 cells (HTFC); conditions: 45 min room temperature, PE anti-human IgG
Procedure: After 45 minutes at room temperature, cells were washed twice and incubated with phycoerythrin (PE) conjugated-anti-human IgG for 20 minutes at room temperature in the dark. Cells were then washed and analyzed by high throughput flow cytometry (HTFC). The results are shown in FIG. 9 for assessment of antibody binding to cellular antigens in U251 cells.

U251 cells = test: Cell penetration in U251 cells by microscopy; format: cell-based; conditions: 20 ug/mL, 2 hours at 37° C.
Procedure: Briefly, previously cleaned glass coverslips were coated with collagen for 2 hours at 37° C. 100,000 U251 cells were seeded on the coverslips. Media was removed, and cells were rinsed once with fluorobrite. Next, 20 ug/mL of the specified antibody was added for 2 hours at 37° C. Cells were fixed in 4% PFA for 15 minutes and then permeabilized with 0.1% TritonX for 15 minutes. Cells were blocked with 3% BSA for 30 minutes and 1:250 GAH-Alexa fluor 488 was added for 1 hour. Next, 200× wheat germ agglutinin Alexa fluor 555 (WGA 555) and 1:1000 DAPI was added for 30 minutes. Cells were washed 3× with PBS and mounted with prolong gold anti-fade.

GST protein = test: Biacore binding to GST protein; conditions: Biacore assay
Procedure: (§1) Anti-human Fc antibody (GE, BR-1008-39) was immobilized on a CMS sensor chip to approximately 1000 RU using standard NHS/EDC coupling methodology. Antibodies (approximately 10 ug/ml) were captured for 60 seconds at a flow rate of 10 ul/min Recombinant human STAT3-GST was serially diluted 2-fold into running buffer (HBS-EP+, starting from […]). All measurements were conducted at a flow rate of 30 ul/min Surfaces were regenerated with 3M MgCl2 (from human antibody kit) for 60 seconds. A 1:1 (Langmuir) binding model was used to fit the data.

STAT3 [3] = target: T1, STAT3; test: Biacore T200 affinity to recombinant human STAT3-GST; conditions: Biacore T200, 1:1 (Langmuir) binding model
Procedure: as §1

STAT3 [4] = target: T1, STAT3; test: Cell binding assay of anti-STAT3 antibodies, fixed and permeabilized cells, flow cytometry; parameters: endogenous in cells; conditions: MDA-MB-468 and U251 cells, serial dilutions, PE anti-human IgG
Procedure: Next, the binding of the candidate anti-STAT3 antibodies to cellular targets was tested in cell binding assays using MDA-MB-435 breast cancer cells and U251 cells. The cells were seeded overnight in a 96 well plate, then fixed with PFA and permeabilized with methanol. Cells were incubated with serial dilutions of the anti-STAT3 antibody candidates ST1A5, ST3G12 and ST5G12 for one hour and 30 minutes. Following incubation, the cells were washed and incubated for 30 minutes with phycoerythrin (PE) conjugated anti-human IgG. Fluorescence was measured on an Intellicyte high-throughput flow cytometry analyzer. […] Bevacizumab (Avastin), a monoclonal antibody that inhibits vascular endothelial growth factor A (VEGF-A) was used as a negative control.

O=C1NC(=NS(=O)(=O)c2cccc3ccccc23)S/C1=C\c1ccc(Br)cc1 [PS2, Pitstop2]
effect of inhibitor on compound 901a uptake (MCF-10A cells; inhibitor 30 uM and 60 uM): inhibited compound 901a uptake

CCCCC[C@@H](O)[C@H]1C(=O)O[C@H](C)[C@@H](O)/C=C/C=C/C=C/C=C/C=C(\C)[C@@H](O)C[C@H](O)C[C@H](O)C[C@H](O)C[C@H](O)C[C@H](O)C[C@@H]1O [filipin]
effect of inhibitor on compound 901a uptake (MCF-10A cells; inhibitor 0.5 ug/ml): little effect
effect of inhibitor on compound 901a uptake (MCF-10A cells; inhibitor 1.0 ug/ml): greater effect

B1: ST3G12: Human anti-human STAT3 antibody; heavy chain variable SEQ ID NO: 3, light chain variable SEQ ID NO: 4 (antibody, V domains shown)
VH: QVQLVQSGAEVKKPGASVKVSCKASGYTFTSYYMHWVRQAPGQGLEWMGIINPSGGSTSYAQKFQGRVTMTRDTSTSTVYMELSSLRSEDTAVYYCARSDYVHSFDIWGQGTMVTVSS
VL: QPVLTQPPSASALLGASIKLTCTLSSEHSTYTVEWYQQRPGRSPQYIMNVKSDGSYNKGDGIPDRFMGSSSGADRYLTFSNLQSDDEAEYHCGESHRIDGQVGVVFGGGTKLTVL
effect on STAT3 phosphorylation (STAT3 [1]): little to no effect
binding to cellular antigens in U251 cells [2]: considerably lower
cell penetration / internalization (U251 cells): no internalization
binding to GST protein (GST protein): No binding
Rmax (STAT3 [3]): 174 RU
kd (STAT3 [3]): 0.000322 s⁻¹
ka (STAT3 [3]; STAT3-GST from 100 nm): 59700 M⁻¹ s⁻¹
binding to STAT3 / cellular antigens (MFI) (STAT3 [4]): bound STAT3
